According to article PMC7913109:

B1: Gluc1-IKKε (pSPICA-N1 human IKKε) (natural protein)
chain: MQSTANYLWHTDDLLGQGATASVYKARNKKSGELVAVKVFNTTSYLRPREVQVREFEVLRKLNHQNIVKLFAVEETGGSRQKVLVMEYCSSGSLLSVLESPENAFGLPEDEFLVVLRCVVAGMNHLRENGIVHRDIKPGNIMRLVGEEGQSIYKLTDFGAARELDDDEKFVSVYGTEEYLHPDMYERAVLRKPQQKAFGVTVDLWSIGVTLYHAATGSLPFIPFGGPRRNKEIMYRITTEKPAGAIAGAQRRENGPLEWSYTLPITCQLSLGLQSQLVPILANILEVEQAKCWGFDQFFAETSDILQRVVVHVFSLSQAVLHHIYIHAHNTIAIFQEAVHKQTSVAPRHQEYLFEGHLCVLEPSVSAQHIAHTTASSPLTLFSTAIPKGLAFRDPALDVPKFVPKVDLQADYNTAKGVLGAGYQALRLARALLDGQELMFRGLHWVMEVLQATCRRTLEVARTSLLYLSSSLGTERFSSVAGTPEIQELKAAAELRSRLRTLAEVLSRCSQNITETQESLSSLNRELVKSRDQVHEDRSIQQIQCCLDKMNFIYKQFKKSRMRPGLGYNEEQIHKLDKVNFSHLAKRLLQVFQEECVQKYQASLVTHGKRMRVVHETRNHLRLVGCSVAACNTEAQGVQESLSKLLEELSHQLLQDRAKGAQASPPPIAPYPSPTRKDLLLHMQELCEGMKLLASDLLDNNRIIERLNRVPAPPDV

Molecular target: Gluc2-VP3 BTV8 (pSPICA-N2-VP3 BTV8)
Assay: split reporter (BiFC, NanoBiT)

Molecule | NLR (normalized luminescence ratio)
Gluc1-MAVS (pSPICA-N1 human MAVS) (from UniProt Q7Z434 1-540) (natural protein) | 17.4
B1 | 17.7
